Assay results: patent US20220135656A1

Tests used:
[1] = molecular target: oat proteins (oat); test: indirect ELISA on coated Oat, duplicate 1
[2] = molecular target: oat proteins (oat); test: indirect ELISA on coated Oat, duplicate 2
[3] = molecular target: rye proteins (rye prolamins) (rye); test: indirect ELISA on coated Rye, duplicate 1
[4] = molecular target: rye proteins (rye prolamins) (rye); test: indirect ELISA on coated Rye, duplicate 2
[5] = molecular target: wheat proteins (wheat prolamins) (wheat); test: indirect ELISA on coated Wheat, duplicate 1
[6] = molecular target: wheat proteins (wheat prolamins) (wheat); test: indirect ELISA on coated Wheat, duplicate 2
[7] = molecular target: 33-mer gluten specific peptide (wheat); test: indirect ELISA on coated 33-Mer, duplicate 1
[8] = molecular target: 33-mer gluten specific peptide (wheat); test: indirect ELISA on coated 33-Mer, duplicate 2
[9] = molecular target: barley proteins (barley prolamins) (barley); test: indirect ELISA on coated Barley, duplicate 1
[10] = molecular target: barley proteins (barley prolamins) (barley); test: indirect ELISA on coated Barley, duplicate 2
[11] = molecular target: PWG-gliadin (wheat); test: SPR, Biacore T200; Glutenin amine-coupled to the chip, antibody as analyte 20-320 nM; 1:1 binding fit; Chi2 1.1 RU2, U-value 5

Sequence of 33-mer gluten specific peptide (wheat) (peptide, as listed by the source): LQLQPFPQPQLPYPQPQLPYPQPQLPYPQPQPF

Question: Which ELISA absorbance at 0 ng/ml antibody (blank) [1] does the source give for R5 monoclonal antibody here?
Answer: 0.043

Question: What about the ELISA absorbance at 0.8 ng/ml antibody [1] of the same substance?
Answer: 0.041

Question: What about the ELISA absorbance at 4 ng/ml antibody [1] of the same substance?
Answer: 0.042

Question: And the ELISA absorbance at 20 ng/ml antibody [1]?
Answer: 0.043

Question: And the ELISA absorbance at 0 ng/ml antibody (blank) [2]?
Answer: 0.044

Question: And the ELISA absorbance at 0.8 ng/ml antibody [2]?
Answer: 0.055

Question: What about the ELISA absorbance at 4 ng/ml antibody [2] of the same substance?
Answer: 0.043

Question: And the ELISA absorbance at 20 ng/ml antibody [2]?
Answer: 0.048

Question: What about the ELISA absorbance at 0 ng/ml antibody (blank) [3] of the same substance?
Answer: 0.039

Question: And the ELISA absorbance at 0.8 ng/ml antibody [3]?
Answer: 0.165

Question: And the ELISA absorbance at 4 ng/ml antibody [3]?
Answer: 0.651

Question: And the ELISA absorbance at 20 ng/ml antibody [3]?
Answer: 1.56

Question: And the ELISA absorbance at 0 ng/ml antibody (blank) [4]?
Answer: 0.042

Question: And the ELISA absorbance at 0.8 ng/ml antibody [4]?
Answer: 0.174

Question: What about the ELISA absorbance at 4 ng/ml antibody [4] of the same substance?
Answer: 0.671

Question: What about the ELISA absorbance at 20 ng/ml antibody [4] of the same substance?
Answer: 1.61

Question: And the ELISA absorbance at 0 ng/ml antibody (blank) [5]?
Answer: 0.039

Question: What about the ELISA absorbance at 0.8 ng/ml antibody [5] of the same substance?
Answer: 0.133

Question: And the ELISA absorbance at 4 ng/ml antibody [5]?
Answer: 0.534

Question: What about the ELISA absorbance at 20 ng/ml antibody [5] of the same substance?
Answer: 1.5

Question: And the ELISA absorbance at 0 ng/ml antibody (blank) [6]?
Answer: 0.043

Question: What about the ELISA absorbance at 0.8 ng/ml antibody [6] of the same substance?
Answer: 0.133

Question: What about the ELISA absorbance at 4 ng/ml antibody [6] of the same substance?
Answer: 0.534

Question: What about the ELISA absorbance at 20 ng/ml antibody [6] of the same substance?
Answer: 1.52

Question: What about the ELISA absorbance at 0 ng/ml antibody (blank) [7] of the same substance?
Answer: 0.04

Question: And the ELISA absorbance at 0.8 ng/ml antibody [7]?
Answer: 0.039

Question: What about the ELISA absorbance at 4 ng/ml antibody [7] of the same substance?
Answer: 0.048

Question: And the ELISA absorbance at 20 ng/ml antibody [7]?
Answer: 0.067

Question: What about the ELISA absorbance at 0 ng/ml antibody (blank) [8] of the same substance?
Answer: 0.04

Question: And the ELISA absorbance at 0.8 ng/ml antibody [8]?
Answer: 0.04

Question: What about the ELISA absorbance at 4 ng/ml antibody [8] of the same substance?
Answer: 0.052

Question: And the ELISA absorbance at 20 ng/ml antibody [8]?
Answer: 0.118

Question: What about the ELISA absorbance at 0 ng/ml antibody (blank) [9] of the same substance?
Answer: 0.041

Question: And the ELISA absorbance at 0.8 ng/ml antibody [9]?
Answer: 0.165

Question: And the ELISA absorbance at 4 ng/ml antibody [9]?
Answer: 0.63

Question: And the ELISA absorbance at 20 ng/ml antibody [9]?
Answer: 1.62

Question: What about the ELISA absorbance at 0 ng/ml antibody (blank) [10] of the same substance?
Answer: 0.042

Question: And the ELISA absorbance at 0.8 ng/ml antibody [10]?
Answer: 0.171

Question: And the ELISA absorbance at 4 ng/ml antibody [10]?
Answer: 0.659

Question: What about the ELISA absorbance at 20 ng/ml antibody [10] of the same substance?
Answer: 1.61

Question: What about the Kd [11] of the same substance?
Answer: 203 nM

Question: What about the koff [11] of the same substance?
Answer: 0.0539 s⁻¹

Question: And the kon [11]?
Answer: 266000 M⁻¹ s⁻¹
